From the supplement of paper PMC5998384

Legend:
HeLa Kyoto [1] = test: solubility in G1/S (NP-40 vs SDS abundance) (log2 ratio); higher = more soluble; details: cell cycle stage: G1/S
HeLa Kyoto [2] = test: melting temperature (median over replicates), in situ; higher = more thermally stable
HeLa Kyoto [3] = test: solubility change mitosis vs G1/S (difference of NP-40 vs SDS log2 ratios) (log2 ratio difference); higher = more soluble in mitosis
HeLa Kyoto [4] = test: thermal stability score vs G1/S (z-score of summed log2 fold changes over temperatures); higher = more thermally stable than in G1/S
[5] = cell cycle stage: early G1 (4.5 h after nocodazole release)
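Throughout, for melting temperature (median over replicates), in situ: HeLa Kyoto cells synchronized by double thymidine or nocodazole block, proteins quantified by TMT10plex mass spectrometry, three independent biological replicates.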
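Throughout, for solubility change mitosis vs G1/S (difference of NP-40 vs SDS log2 ratios): synchronized HeLa Kyoto cells (double thymidine block for G1/S, nocodazole release for mitosis), protein amounts in NP-40 versus SDS lysates quantified by mass spectrometry, three biological replicates.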
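Throughout, for solubility in G1/S (NP-40 vs SDS abundance): HeLa Kyoto cells arrested at G1/S by double thymidine block, proteins quantified by TMT10plex mass spectrometry in mild NP-40 versus SDS extracts, three biological replicates.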
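Throughout, for thermal stability score vs G1/S (z-score of summed log2 fold changes over temperatures): synchronized HeLa Kyoto cells, proteins quantified by TMT10plex mass spectrometry, three biological replicates, mitosis taken 0.5 h after nocodazole release, G1/S directly after double thymidine block.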

Chain of ARHGAP4 (chain, as listed by the source): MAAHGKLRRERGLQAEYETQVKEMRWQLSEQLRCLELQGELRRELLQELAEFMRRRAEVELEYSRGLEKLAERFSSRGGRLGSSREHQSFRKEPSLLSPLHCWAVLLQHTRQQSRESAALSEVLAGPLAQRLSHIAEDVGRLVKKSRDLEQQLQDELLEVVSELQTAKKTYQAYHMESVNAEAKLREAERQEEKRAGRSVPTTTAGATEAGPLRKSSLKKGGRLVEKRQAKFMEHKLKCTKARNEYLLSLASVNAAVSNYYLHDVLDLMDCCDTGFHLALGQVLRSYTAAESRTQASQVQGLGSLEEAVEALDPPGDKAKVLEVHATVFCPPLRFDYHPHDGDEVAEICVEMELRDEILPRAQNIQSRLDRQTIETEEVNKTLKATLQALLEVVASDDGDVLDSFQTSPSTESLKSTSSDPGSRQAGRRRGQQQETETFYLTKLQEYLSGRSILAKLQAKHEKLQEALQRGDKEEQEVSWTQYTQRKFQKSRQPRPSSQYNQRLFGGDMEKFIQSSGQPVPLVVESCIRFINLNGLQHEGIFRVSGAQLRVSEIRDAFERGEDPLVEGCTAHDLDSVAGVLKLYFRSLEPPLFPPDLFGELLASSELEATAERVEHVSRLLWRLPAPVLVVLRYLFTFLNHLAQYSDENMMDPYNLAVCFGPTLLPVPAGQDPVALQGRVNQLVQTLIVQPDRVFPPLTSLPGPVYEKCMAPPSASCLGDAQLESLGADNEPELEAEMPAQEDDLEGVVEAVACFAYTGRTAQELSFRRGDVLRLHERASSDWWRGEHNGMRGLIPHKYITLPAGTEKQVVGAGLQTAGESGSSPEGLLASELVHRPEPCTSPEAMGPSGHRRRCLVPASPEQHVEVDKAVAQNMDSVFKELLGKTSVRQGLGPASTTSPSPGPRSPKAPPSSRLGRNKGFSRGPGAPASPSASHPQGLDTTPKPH

“MGDERPHYYGKHGTPQKYDPTFKGPIYNRGCTDIICCVFLLLAIVGYVAVGIIAWTHGDPRKVIYPTDSRGEFCGQKGTKNENKPYLFYFNIVKCASPLVLLEFQCPTPQICVEKCPDRYLTYLNARSSRDFEYYKQFCVPGFKNNKGVAEVLQDGDCPAVLIPSKPLARRCFPAIHAYKGVLMVGNETTYEDGHGSRKNITDLVEGAKKANGVLEARQLAMRIFEDYTVSWYWIIIGLVIAMAMSLLFIILLRFLAGIMVWVMIIMVILVLGYGIFHCYMEYSRLRGEAGSDVSLVDLGFQTDFRVYLHLRQTWLAFMIILSILEVIIILLLIFLRKRILIAIALIKEASRAVGYVMCSLLYPLVTFFLLCLCIAYWASTAVFLSTSNEAVYKIFDDSPCPFTAKTCNPETFPSSNESRQCPNARCQFAFYGGESGYHRALLGLQIFNAFMFFWLANFVLALGQVTLAGAFASYYWALRKPDDLPAFPLFSAFGRALRYHTGSLAFGALILAIVQIIRVILEYLDQRLKAAENKFAKCLMTCLKCCFWCLEKFIKFLNRNAYIMIAIYGTNFCTSARNAFFLLMRNIIRVAVLDKVTDFLFLLGKLLIVGSVGILAFFFFTHRIRIVQDTAPPLNYYWVPILTVIVGSYLIAHGFFSVYGMCVDTLFLCFLEDLERNDGSAERPYFMSSTLKKLLNKTNKKAAES [SLC44A2]” was tested, and the “solubility in G1/S (log2)” value (HeLa Kyoto [1]) was 0.0147, the melting temperature (HeLa Kyoto [2]; cell cycle stage: G1/S) was 60.2 °C and the melting temperature (HeLa Kyoto [2]; cell cycle stage: mitosis) was 60.1 °C. The “solubility change mitosis (log2)” value (HeLa Kyoto [3]) was 0.0871, the thermal stability score (HeLa Kyoto [4]; [5]) was -1.29 and the thermal stability score (HeLa Kyoto [4]; cell cycle stage: mitosis) was -2.25.

“MSTKNFRVSDGDWICPDKKCGNVNFARRTSCNRCGREKTTEAKMMKAGGTEIGKTLAEKSRGLFSANDWQCKTCSNVNWARRSECNMCNTPKYAKLEERTGYGGGFNERENVEYIEREESDGEYDEFGRKKKKYRGKAVGPASILKEVEDKESEGEEEDEDEDLSKYKLDEDEDEDDADLSKYNLDASEEEDSNKKKSNRRSRSKSRSSHSRSSSRSSSPSSSRSRSRSRSRSSSSSQSRSRSSSRERSRSRGSKSRSSSRSHRGSSSPRKRSYSSSSSSPERNRKRSRSRSSSSGDRKKRRTRSRSPERRHRSSSGSSHSGSRSSSKKK [ZRANB2]” was tested, and the “solubility in G1/S (log2)” value (HeLa Kyoto [1]) was -0.0186, the melting temperature (HeLa Kyoto [2]; cell cycle stage: G1/S) was 58 °C and the “solubility change mitosis (log2)” value (HeLa Kyoto [3]) was -0.011. It also gave a thermal stability score (HeLa Kyoto [4]; [5]) of 0.299 and a thermal stability score (HeLa Kyoto [4]; cell cycle stage: mitosis) of 0.397.

In the case of ARHGAP4, the “solubility in G1/S (log2)” value (HeLa Kyoto [1]) is reported as 0.0702, the melting temperature (HeLa Kyoto [2]; cell cycle stage: G1/S) is reported as 52.5 °C and the melting temperature (HeLa Kyoto [2]; cell cycle stage: mitosis) is reported as 50.3 °C. The “solubility change mitosis (log2)” value (HeLa Kyoto [3]) was -0.000167, the thermal stability score (HeLa Kyoto [4]; [5]) was 0.224 and the thermal stability score (HeLa Kyoto [4]; cell cycle stage: mitosis) was 0.251.

For “MKVTLSALDTSESSFTPLVVIELAQDVKEETKEWLKNRIIAKKKDGGAQLLFRPLLNKYEQETLENQNLYLVGASKIRMLLGAEAVGLVKECNDNTMRAFTYRTRQNFKGFDDNNDDFLTMAECQFIIKHELENLRAKDEKMIPGYPQAKLYPGKSLLRRLLTSGIVIQVFPLHDSEALKKLEDTWYTRFALKYQPIDSIRGYFGETIALYFGFLEYFTFALIPMAVIGLPYYLFVWEDYDKYVIFASFNLIWSTVILELWKRGCANMTYRWGTLLMKRKFEEPRPGFHGVLGINSITGKEEPLYPSYKRQLRIYLVSLPFVCLCLYFSLYVMMIYFDMEVWALGLHENSGSEWTSVLLYVPSIIYAIVIEIMNRLYRYAAEFLTSWENHRLESAYQNHLILKVLVFNFLNCFASLFYIAFVLKDMKLLRQSLATLLITSQILNQIMESFLPYWLQRKHGVRVKRKVQALKADIDATLYEQVILEKEMGTYLGTFDDYLELFLQFGYVSLFSCVYPLAAAFAVLNNFTEVNSDALKMCRVFKRPFSEPSANIGVWQLAFETMSVISVVTNCALIGMSPQVNAVFPESKADLILIVVAVEHALLALKFILAFAIPDKPRHIQMKLARLEFESLEALKQQQMKLVTENLKEEPMESGKEKAT [ANO10]”, the “solubility in G1/S (log2)” value (HeLa Kyoto [1]) was -0.181, the melting temperature (HeLa Kyoto [2]; cell cycle stage: G1/S) was 53.2 °C and the melting temperature (HeLa Kyoto [2]; cell cycle stage: mitosis) was 51.9 °C. The “solubility change mitosis (log2)” value (HeLa Kyoto [3]) was -0.214, the thermal stability score (HeLa Kyoto [4]; [5]) was -0.93 and the thermal stability score (HeLa Kyoto [4]; cell cycle stage: mitosis) was -1.12.
